Target: nucleolin (NCL) (Homo sapiens) (UniProt P19338)
Assay: SPR
Conditions: SPR (Biacore X-100, CM5): 10 mM HEPES, 70 mM KCl, pH 7.4, 25 C, analyte 5-500 uM, two-state reaction fit

Sequence of nucleolin (NCL) (Homo sapiens) (P19338 whole entry): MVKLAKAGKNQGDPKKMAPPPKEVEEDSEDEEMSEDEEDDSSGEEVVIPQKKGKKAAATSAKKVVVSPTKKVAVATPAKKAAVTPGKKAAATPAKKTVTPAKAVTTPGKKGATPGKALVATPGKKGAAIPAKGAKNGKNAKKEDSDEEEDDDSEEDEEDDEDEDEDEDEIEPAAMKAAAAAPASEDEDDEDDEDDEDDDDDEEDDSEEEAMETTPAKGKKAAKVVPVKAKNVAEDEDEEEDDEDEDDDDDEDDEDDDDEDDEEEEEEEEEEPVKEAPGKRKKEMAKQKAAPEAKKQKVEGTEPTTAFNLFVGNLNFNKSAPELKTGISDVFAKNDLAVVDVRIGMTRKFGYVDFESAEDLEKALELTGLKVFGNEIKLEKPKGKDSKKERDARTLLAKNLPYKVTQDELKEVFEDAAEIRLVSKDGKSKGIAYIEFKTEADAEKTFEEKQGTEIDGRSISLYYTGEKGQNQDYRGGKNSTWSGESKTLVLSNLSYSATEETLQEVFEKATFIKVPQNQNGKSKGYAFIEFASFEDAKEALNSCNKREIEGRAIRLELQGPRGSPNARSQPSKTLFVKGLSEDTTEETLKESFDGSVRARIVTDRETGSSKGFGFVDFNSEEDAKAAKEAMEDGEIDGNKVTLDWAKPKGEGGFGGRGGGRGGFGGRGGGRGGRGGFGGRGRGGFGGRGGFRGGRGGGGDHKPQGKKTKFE

| Sequence | Kd (N at 5,6 = abasic site mimic (dSpacer, 1',2'-dideoxyribose)) [µM] | Kd (N at 11-13 = abasic site mimic (dSpacer, 1',2'-dideoxyribose)) [µM] |
| --- | --- | --- |
| GGGGNNGGGGTGTGGGGTTGGGG [TBAG41S] | 41.5 | – |
| GGGGTTGGGGNNNGGGGTTGGGG [TBAG4GS] | – | 32.2 |

Source: publication PMC9736779
